{
  "source": "paper PMC5080355",
  "about": "“Interaction of the Nitrogen Regulatory Protein GlnB (PII) with Biotin Carboxyl Carrier Protein (BCCP) Controls Acetyl-CoA Levels in the Cyanobacterium Synechocystis sp. PCC 6803” (Frontiers in Microbiology, 2016)",
  "target": "E. coli biotin carboxyl carrier protein (His-BCCP), subunit of acetyl-CoA carboxylase (E. coli) (UniProt P0ABD8)",
  "data": [
    {"substance": "GlnB (PII) from Synechococcus elongatus PCC7942, wild type (from UniProt P0A3F4 1-112) (natural protein)", "values": [
      {"measurement": "EC50 of inhibition of reconstituted E. coli ACC activity by increasing GlnB (coupled PK/LDH assay, 10 mM ATP)", "result": 310, "unit": "nM"},
      {"measurement": "maximum inhibition of reconstituted E. coli ACC activity (coupled PK/LDH assay, 10 mM ATP)", "result": 93, "unit": "%"}
    ]}
  ]
}
